In patent publication US11819542B2, “Immunotherapeutic method for treating lung cancer by administering a polypeptide comprising an epitope of hZP3” (Pantarhei Bioscience B.V., priority 2017, dated 2023):

Assays:
[1] = test system: hZP3 specific CD8^+ responses; experiment: ZP3 specific CD8+ T cell response after immunization (interferon-γ ELISpot); format: in vivo; settings: HLA-A2 transgenic mice with ZP3 expressing tumors, after prime and boost immunization plus GM-CSF/CpG, Day 30 to 35
Description: (§1) FIG. 5: Schedule for administration of hZP3-positive B16-HLA-A2 melanoma tumor cells and an hZP3 peptide-mixture (comprising peptides 4, 5, 6, 8 and 9 in Table 5), or rhZP3^1-383 protein to HLA-A2 transgenic mice. On Day 0 (D0), a tumor injection with 10^6 cells/mouse was given subcutaneously (s.c.). Thereafter, the prime injection was administered 7 to 10 days (D7-10) and a boost injection on Day 14 to Day 17 (D14-17). Tumor size was monitored after treatment. At Day 30 to 35, mice were sacrificed to determine hZP3 specific CD8^+ responses (ELISpot).
FIG. 7: CD8^+ T cell responses as determined by interferon-γ (IFNg) ELISpot as measured against the peptides (all 5 or peptides 4, 5, 6, 8 or 9 individually) after immunization with the mixture of the 5 hZP3 peptides (peptide), or after immunization with the rhZP3^1-383 protein ZP3 (prot).
An in vivo pre-clinical efficacy study has been conducted to assess the immune response and the anti-tumor response after immunization with rhZP3 polypeptide (aa 1-383 with his-tag) and 5 different ZP3 epitopes. […]
(§2) On Day 0 (DO), a tumor injection with 10^6 cells/mouse (s.c.) was given. […] Tumor size was monitored after treatment. […]

[2] = test system: hZP3-positive B16-HLA-A2 melanoma tumor; experiment: Therapeutic immunization of HLA-A2 transgenic mice with ZP3-expressing tumor: tumor size; format: in vivo; settings: female HLA-A2 transgenic mice, ZP3 expressing tumors, 2 s.c. immunizations (prime D7-10, boost D14-17) plus GM-CSF/CpG, tumor size increased with PBS
Description: as §1
An in vivo pre-clinical efficacy study has been conducted to assess the immune response and the anti-tumor response after immunization with rhZP3 polypeptide (aa 1-383 with his-tag) and 5 different ZP3 epitopes. The hZP3 epitopes were selected based on CD8^+ T cell responses observed during previously performed immunogenicity experiments with rhZP3 polypeptide (aa 1-383) and with pools of peptides comprising hZP3 epitopes as indicated (see Table 5) combined with different adjuvants (data not shown). The peptides were synthesized by Pepscan (the Netherlands) at a purity >96%. […]
as §2

[3] = listed as hZP3 polypeptide (aa 1-383)

B1: rhZP3 protein: rhZP3 polypeptide (aa 1-383 with his-tag), 100 μg s.c. plus GM-CSF/CpG as adjuvant (protein)
chain: QPLWLLQGGASHPETSVQPVLVECQEATLMVMVSKDLFGTGKLIRAADLTLGPEACEPLVSMDTEDVVRFEVGLHECGNSMQVTDDALVYSTFLLHDPRPVGNLSIVRTNRAEIPIECRYPRQGNVSSQAILPTWLPFRTTVFSEEKLTFSLRLMEENWNAEKRSPTFHLGDAAHLQAEIHTGSHVPLRLFVDHCVATPTPDQNASPYHTIVDFHGCLVDGLTDASSAFKVPRPGPDTLQFTVDVFHFANDSRNMIYITCHLKVTLAEQDPDELNKACSFSKPSNSWFPVEGSADICQCCNKGDCGTPSHSRRQPHVMSQWSRSASRN
CD8^+ T cell response (IFNg ELISpot) ([1]; listed as ZP3 protein): a TCD8 response was observed | CD8^+ T cell response (IFNg ELISpot) [1, 3]: induced CD8^+ T cells | Tumor size after treatment [2]: no growth of the tumor was observed | Tumor size after treatment [2, 3]: no increase in tumor size was observed
